The data set deals with the molecule itself. The experiment in a line: SEC; Sephadex G-150 column; 500 ul of untagged Mpn SSB at 0.3 mg/ml in 50 mM Tris-HCl pH 7.5, 135 mM NaCl; calibrated with BSA, ovalbumin and cytochrome C; fractions analysed by SDS-PAGE. On the technique in general: In gel filtration, larger molecules generally elute earlier.

B1: Mpn single-stranded DNA-binding protein (Mpn SSB), natural non-tagged form (natural protein, Mycoplasma pneumoniae, UniProt P75542 1-166, looked up)
chain: MNRVFLFGKLSFDPNKLQTRTNNIGASFSLACIDSSGFNDSKSYIRITAWGKVASFVLTLKPGDSVFVEGRLSTYKMNNRSDDPNSKATYALQVIADKVYRPDEENSLEQPVDKATVIDSPFLAAKTNATENELAQAFPISLDDEDDDINPILNNDSQLEEESDDE
notes: 166 amino acids, 18.4 kDa; ORF amplified from genomic DNA of strain MAC (ATCC 15492) with primers from the initiation codon to the termination codon; expressed in its natural, non-tagged form; Cloned from strain MAC; the genome entry for MPN229 is of strain M129; also called MPN229 protein product; M. pneumoniae SSB; source: E. coli BL21(DE3), pET-11c-MpnSSB, purified (ammonium sulphate …)
Usually stoichiometry N stands for a count of units in the complex or per binding partner. On to B1, for which the “stoichiometry N” value turned out to be 4.

(Values after paper PMC2572620, “The Mycoplasma pneumoniae MPN229 gene encodes a protein that selectively binds single-stranded DNA and stimulates Recombinase A-mediated DNA strand exchange” (BMC Microbiology, 2008).)
